The values that follow come from paper PMC10538476.

The target in the assay is Human macrophage galactose-type lectin (MGL) isoform 2 extracellular domain (human). Description: SAXS; MGL-ECD at 1 mg/mL in 25 mM Tris pH 8, 150 mM NaCl, 4 mM CaCl2, 25°C; ESRF BM29 beamline; oligomeric state from the estimated molecular weight.

By stoichiometry N is commonly meant the number of molecules, sites or subunits per partner or assembly. On to “Human macrophage galactose-type lectin (MGL) isoform 2 extracellular domain (domain or fragment)”, for which the stoichiometry N is 3.
